Assays:
HeLa Kyoto [1] = experiment: solubility in G1/S (NP-40 vs SDS abundance) (log2 ratio); higher = more soluble; conditions: cell cycle stage: G1/S
HeLa Kyoto [2] = experiment: solubility change mitosis vs G1/S (difference of NP-40 vs SDS log2 ratios) (log2 ratio difference); higher = more soluble in mitosis
HeLa Kyoto [3] = experiment: thermal stability score vs G1/S (z-score of summed log2 fold changes over temperatures); higher = more thermally stable than in G1/S
HeLa Kyoto [4] = experiment: melting temperature (median over replicates), in situ; higher = more thermally stable
[5] = cell cycle stage: early G1 (4.5 h after nocodazole release)
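Wherever melting temperature (median over replicates), in situ is given: HeLa Kyoto cells synchronized by double thymidine or nocodazole block, proteins quantified by TMT10plex mass spectrometry, three independent biological replicates.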
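Wherever solubility change mitosis vs G1/S (difference of NP-40 vs SDS log2 ratios) is given: synchronized HeLa Kyoto cells (double thymidine block for G1/S, nocodazole release for mitosis), protein amounts in NP-40 versus SDS lysates quantified by mass spectrometry, three biological replicates.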
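Wherever solubility in G1/S (NP-40 vs SDS abundance) is given: HeLa Kyoto cells arrested at G1/S by double thymidine block, proteins quantified by TMT10plex mass spectrometry in mild NP-40 versus SDS extracts, three biological replicates.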
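Wherever thermal stability score vs G1/S (z-score of summed log2 fold changes over temperatures) is given: synchronized HeLa Kyoto cells, proteins quantified by TMT10plex mass spectrometry, three biological replicates, mitosis taken 0.5 h after nocodazole release, G1/S directly after double thymidine block.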

Sequence	solubility in G1/S (log2) (HeLa Kyoto [1])	solubility change mitosis (log2) (HeLa Kyoto [2])	thermal stability score (HeLa Kyoto [3]; [5])	thermal stability score (HeLa Kyoto [3]; cell cycle stage: mitosis)	melting temperature (HeLa Kyoto [4]; cell cycle stage: G1/S) [°C]	melting temperature (HeLa Kyoto [4]; cell cycle stage: mitosis) [°C]
MEAEGSSAPARAGSGEGSDSAGGATLKAPKHLWRHEQHHQYPLRQPQFRLLHPHHHLPPPPPPSPQPQPQCPLQPPPPPPLPPPPPPPGAARGRYASSGATGRVRHRGYSDTERYLYCRAMDRTSYAVETGHRPGLKKSRMSWPSSFQGLRRFDVDNGTSAGRSPLDPMTSPGSGLILQANFVHSQRRESFLYRSDSDYDLSPKSMSRNSSIASDIHGDDLIVTPFAQVLASLRTVRNNFAALTNLQDRAPSKRSPMCNQPSINKATITEEAYQKLASETLEELDWCLDQLETLQTRHSVSEMASNKFKRMLNRELTHLSEMSRSGNQVSEFISNTFLDKQHEVEIPSPTQKEKEKKKRPMSQISGVKKLMHSSSLTNSSIPRFGVKTEQEDVLAKELEDVNKWGLHVFRIAELSGNRPLTVIMHTIFQERDLLKTFKIPVDTLITYLMTLEDHYHADVAYHNNIHAADVVQSTHVLLSTPALEAVFTDLEILAAIFASAIHDVDHPGVSNQFLINTNSELALMYNDSSVLENHHLAVGFKLLQEENCDIFQNLTKKQRQSLRKMVIDIVLATDMSKHMNLLADLKTMVETKKVTSSGVLLLDNYSDRIQVLQNMVHCADLSNPTKPLQLYRQWTDRIMEEFFRQGDRERERGMEISPMCDKHNASVEKSQVGFIDYIVHPLWETWADLVHPDAQDILDTLEDNREWYQSTIPQSPSPAPDDPEEGRQGQTEKFQFELTLEEDGESDTEKDSGSQVEEDTSCSDSKTLCTQDSESTEIPLDEQVEEEAVGEEEESQPEACVIDDRSPDT [PDE4D]	0.0456	-0.23	-2.8	-4.75	53.2	51.1
MPSASASRKSQEKPREIMDAAEDYAKERYGISSMIQSQEKPDRVLVRVRDLTIQKADEVVWVRARVHTSRAKGKQCFLVLRQQQFNVQALVAVGDHASKQMVKFAANINKESIVDVEGVVRKVNQKIGSCTQQDVELHVQKIYVISLAEPRLPLQLDDAVRPEAEGEEEGRATVNQDTRLDNRVIDLRTSTSQAVFRLQSGICHLFRETLINKGFVEIQTPKIISAASEGGANVFTVSYFKNNAYLAQSPQLYKQMCICADFEKVFSIGPVFRAEDSNTHRHLTEFVGLDIEMAFNYHYHEVMEEIADTMVQIFKGLQERFQTEIQTVNKQFPCEPFKFLEPTLRLEYCEALAMLREAGVEMGDEDDLSTPNEKLLGHLVKEKYDTDFYILDKYPLAVRPFYTMPDPRNPKQSNSYDMFMRGEEILSGAQRIHDPQLLTERALHHGIDLEKIKAYIDSFRFGAPPHAGGGIGLERVTMLFLGLHNVRQTSMFPRDPKRLTP [DARS]	-0.115	-0.127	0.0385	4.02	49.4	49.2
MSALLRLLRTGAPAAACLRLGTSAGTGSRRAMALYHTEERGQPCSQNYRLFFKNVTGHYISPFHDIPLKVNSKEENGIPMKKARNDEYENLFNMIVEIPRWTNAKMEIATKEPMNPIKQYVKDGKLRYVANIFPYKGYIWNYGTLPQTWEDPHEKDKSTNCFGDNDPIDVCEIGSKILSCGEVIHVKILGILALIDEGETDWKLIAINANDPEASKFHDIDDVKKFKPGYLEATLNWFRLYKVPDGKPENQFAFNGEFKNKAFALEVIKSTHQCWKALLMKKCNGGAINCTNVQISDSPFRCTQEEARSLVESVSSSPNKESNEEEQVWHFLGK [PPA2]	0.442	0.0395	-1.33	-2	54.8	55.1
MKMADRSGKIIPGQVYIEVEYDYEYEAKDRKIVIKQGERYILVKKTNDDWWQVKPDENSKAFYVPAQYVKEVTRKALMPPVKQVAGLPNNSTKIMQSLHLQRSTENVNKLPELSSFGKPSSSVQGTGLIRDANQNFGPSYNQGQTVNLSLDLTHNNGKFNNDSHSPKVSSQNRTRSFGHFPGPEFLDVEKTSFSQEQSCDSAGEGSERIHQDSESGDELSSSSTEQIRATTPPNQGRPDSPVYANLQELKISQSALPPLPGSPAIQINGEWETHKDSSGRCYYYNRGTQERTWKPPRWTRDASISKGDFQNPGDQELLSSEENYYSTSYSQSDSQCGSPPRGWSEELDERGHTLYTSDYTNEKWLKHVDDQGRQYYYSADGSRSEWELPKYNASSQQQREIIKSRSLDRRLQEPIVLTKWRHSTIVLDTNDKESPTASKPCFPENESSPSSPKHQDTASSPKDQEKYGLLNVTKIAENGKKVRKNWLSSWAVLQGSSLLFTKTQGSSTSWFGSNQSKPEFTVDLKGATIEMASKDKSSKKNVFELKTRQGTELLIQSDNDTVINDWFKVLSSTINNQAVETDEGIEEEIPDSPGIEKHDKEKEQKDPKKLRSFKVSSIDSSEQKKTKKNLKKFLTRRPTLQAVREKGYIKDQVFGSNLANLCQRENGTVPKFVKLCIEHVEEHGLDIDGIYRVSGNLAVIQKLRFAVNHDEKLDLNDSKWEDIHVITGALKMFFRELPEPLFTFNHFNDFVNAIKQEPRQRVAAVKDLIRQLPKPNQDTMQILFRHLRRVIENGEKNRMTYQSIAIVFGPTLLKPEKETGNIAVHTVYQNQIVELILLELSSIFGR [ARHGAP12]	-0.0332	-0.246	-0.591	-0.433	50.7	50.1
MSLRIDVDTNFPECVVDAGKVTLGTQQRQEMDPRLREKQNEIILRAVCALLNSGGGIIKAEIENKGYNYERHGVGLDVPPIFRSHLDKMQKENHFLIFVKSWNTEAGVPLATLCSNLYHRERTSTDVMDSQEALAFLKCRTQTPTNINVSNSLGPQAAQGSVQYEGNINVSAAALFDRKRLQYLEKLNLPESTHVEFVMFSTDVSHCVKDRLPKCVSAFANTEGGYVFFGVHDETCQVIGCEKEKIDLTSLRASIDGCIKKLPVHHFCTQRPEIKYVLNFLEVHDKGALRGYVCAIKVEKFCCAVFAKVPSSWQVKDNRVRQLPTREWTAWMMEADPDLSRCPEMVLQLSLSSATPRSKPVCIHKNSECLKEQQKRYFPVFSDRVVYTPESLYKELFSQHKGLRDLINTEMRPFSQGILIFSQSWAVDLGLQEKQGVICDALLISQNNTPILYTIFSKWDAGCKGYSMIVAYSLKQKLVNKGGYTGRLCITPLVCVLNSDRKAQSVYSSYLQIYPESYNFMTPQHMEALLQSLVIVLLGFKSFLSEELGSEVLNLLTNKQYELLSKNLRKTRELFVHGLPGSGKTILALRIMEKIRNVFHCEPANILYICENQPLKKLVSFSKKNICQPVTRKTFMKNNFEHIQHIIIDDAQNFRTEDGDWYGKAKFITQTARDGPGVLWIFLDYFQTYHLSCSGLPPPSDQYPREEINRVVRNAGPIANYLQQVMQEARQNPPPNLPPGSLVMLYEPKWAQGVPGNLEIIEDLNLEEILIYVANKCRFLLRNGYSPKDIAVLFTKASEVEKYKDRLLTAMRKRKLSQLHEESDLLLQIGDASDVLTDHIVLDSVCRFSGLERNIVFGINPGVAPPAGAYNLLLCLASRAKRHLYILKASV [SLFN5]	-0.0689	-0.0585	1.54	2.13	48.5	49.4
MNIVVEFFVVTFKVLWAFVLAAARWLVRPKEKSVAGQVCLITGAGSGLGRLFALEFARRRALLVLWDINTQSNEETAGMVRHIYRDLEAADAAALQAGNGEEEILPHCNLQVFTYTCDVGKRENVYLTAERVRKEVGEVSVLVNNAGVVSGHHLLECPDELIERTMMVNCHAHFWTTKAFLPTMLEINHGHIVTVASSLGLFSTAGVEDYCASKFGVVGFHESLSHELKAAEKDGIKTTLVCPYLVDTGMFRGCRIRKEIEPFLPPLKPDYCVKQAMKAILTDQPMICTPRLMYIVTFMKSILPFEAVVCMYRFLGADKCMYPFIAQRKQATNNNEAKNGI [RDH10]	-0.308	-0.104	-3.18	-3.77	53.4	52.9
MVGSALRRGAHAYVYLVSKASHISRGHQHQAWGSRPPAAECATQRAPGSVVELLGKSYPQDDHSNLTRKVLTRVGRNLHNQQHHPLWLIKERVKEHFYKQYVGRFGTPLFSVYDNLSPVVTTWQNFDSLLIPADHPSRKKGDNYYLNRTHMLRAHTSAHQWDLLHAGLDAFLVVGDVYRRDQIDSQHYPIFHQLEAVRLFSKHELFAGIKDGESLQLFEQSSRSAHKQETHTMEAVKLVEFDLKQTLTRLMAHLFGDELEIRWVDCYFPFTHPSFEMEINFHGEWLEVLGCGVMEQQLVNSAGAQDRIGWAFGLGLERLAMILYDIPDIRLFWCEDERFLKQFCVSNINQKVKFQPLSKYPAVINDISFWLPSENYAENDFYDLVRTIGGDLVEKVDLIDKFVHPKTHKTSHCYRITYRHMERTLSQREVRHIHQALQEAAVQLLGVEGRF [FARS2]	-0.187	-0.0528	0.911	1.74	49.7	49.5
